Source: the supplement of paper PMC10567573

B1: EHMT1 (parent)
chain: SARQGELQKVLLMLVDGIDPNFKM
B2: FBXO34 (parent)
chain: ASSVESTLPVLEASSWKKQVSHDF

Variants of: B1
Assay: protein stability index of a GFP-peptide fusion (GPS, HEK-293T) (PSI 1-6); higher = more stable
Details: c terminus: a fixed tail appended
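Note: lentivirally expressed fusions sorted by FACS into six bins by GFP to DsRed ratio, PSI derived from sequencing read proportions per bin multiplied by bin number.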

Protein stability index, by site and new letter:
G17: P 1.97, C 2, Y 2.38, K 1.36, M 1.78, S 2.3, D 1.36, F 3.49, H 1.87, L 2.07, E 2.08, Q 1.61, N 2.78, V 3.87
I18: E 2.49, P 1.06, L 2.07, R 1.66, A 1.18, T 2.22, Q 3.19, H 2.42, S 1.97, K 1.46, D 2.22, F 1.81, N 2.24, C 2.47, W 2.54, V 1.59, Y 2.76
Q8: H 1.93, S 1.87, F 3.86, I 2.01, P 1.76, T 2.02, K 1.57, E 2.73, D 1.43, Y 1.76, N 2.23, L 3.28, G 2.25
D19: G 2.8, E 1.5, W 2.35, Y 2.73, T 3.29, A 3.05, H 3.59, S 2.5, N 1.64, K 1.81
A2: R 1.28, T 3.06, F 2.81, V 1.75, H 2.27, I 2.21, C 3.59, Q 1.78, G 1.02, D 1.61, E 1.86, N 3.47, P 2.31, L 3.91, M 2.95, K 1.22, S 3.14
D16: W 1.96, K 2.45, Q 2.49, M 2.7, A 2.11, L 2.31, N 2.72, T 2.8, C 1.61, V 2.27, P 2.41, F 1.6, E 1.51, I 1.69
L12: C 2.31, K 1.12, M 3.16, Q 2.02, A 1.4, F 3.06, T 1.28, P 3.64, N 2.42, G 2.15, R 2.12, D 2.79, H 2.39, S 2.18, V 1.66, E 3.04
Q4: L 3.17, D 1.61, N 1.6, F 3.15, T 2.01, G 1.83, A 2.27, P 2.15, S 1.53, E 1.94, Y 1.94, I 2.56, K 1.35, M 3.05, C 2.29
V15: D 2.69, N 2.56, Q 2.17, I 1.72, Y 1.68, S 1.83, P 2.39, E 2.54, M 1.59, F 3.86, G 2, T 1.26, L 1.49, H 1.66, R 1.65, W 2.75, C 1.64, A 2.07, K 2.25
G5: M 3.61, T 3.12, D 1.94, R 3.6, A 2.65, Y 1.92, H 1.97, C 1.79, S 1.64, F 1.98, E 1.59, W 2.55, I 3.95, P 3.53, N 2.26, Q 1.93
S1: K 2.31, L 1.03, W 2.93, R 2.2, E 1.66, M 1.42, I 1.39, C 2.34, Y 1.45, H 2.42, G 2.05, D 1.18, T 2.12, N 2.67, Q 2.03, P 1.83, F 1.97
E6: L 1.99, H 2.02, I 3.51, S 2.6, Q 1.87, F 2.34, M 2.91, D 1.69, T 2.4, P 2.45, W 1.89, N 2.15, Y 3.65
L7: Q 1.7, Y 1.5, A 1.91, C 1.03, P 1.84, I 2.81, T 1.62, D 2.19, V 1.03, S 1.43, R 2.12, M 1.27, E 2.35, H 3.17, K 1.67, N 1.36, F 1.04, G 1.59
R3: C 1.83, L 2.39, H 1.5, G 1.86, K 2.8, Y 1.88, D 1.78, W 3.4, I 2.15, F 1.86, T 1.76, P 2.83, N 2.38, A 1.96, S 1.75, E 2.2, Q 2.25
L14: S 3.03, V 2.53, G 2.36, Q 2.54, W 1.79, N 3.02, H 2.38, K 2.74, C 1.46, R 2.61, P 3.21, A 2.39, M 3.99, I 1.98, T 1.7, D 3.47, Y 1.76, E 3.22, F 1.93
V10: A 2.33, H 2.16, N 3.15, C 1.77, R 1.88, D 3.36, P 2.43, I 2.01, T 1.99, F 4.02, L 1.25, M 2.12, Q 1.72, G 1.94, Y 3.4, E 3.02, S 2.29, K 2.47, W 1.77
M13: Y 2.47, R 1.73, T 2.35, Q 2.09, H 1.88, S 2, N 2.46, D 2.97, A 1.73, F 1.83, P 3.74, G 2.37, I 1.04, E 3.12, L 2.11, K 1.89
L11: F 2.49, I 2.1, Y 1.65, R 2.53, H 2.15, P 3.13, A 2.11, S 2.45, T 2.36, V 2.7, E 3.28, C 1.99, D 3.35, K 2.69, N 3.23, M 1.38, G 3.6, Q 2.19
P20: A 2.66
K9: S 2.79, H 1.62, A 2.51, P 1.95, T 2.9, V 4.22, F 3.96, D 1.62, N 1.91, Q 2.37, R 1.68

Variants of: B2
Assay: as above
Details: c terminus: a fixed tail appended

Protein stability index, by site and new letter:
F24: S 4.33, G 2.98, M 3, Q 4.25, N 4.25, H 3.98, I 2.19, T 3.77, R 4.53, W 2.45, Y 3, V 3.83, K 4.79, C 3.49, P 4.26, L 2.31, A 3.78
D23: A 3.54, R 3.76, I 2.07, K 3.54, M 2.96, H 3.27, Y 2.18, E 1.77, S 3.14, Q 2.93, C 2.22, T 3.26, P 2.91, L 3.27, F 3.22, W 2.61, G 3.06
